Laboratory results from patent US10653749B2, “Targeting GIV-GEF-GI signaling for treating diverse diseases” (The Regents of the University of California, priority 2015, dated 2020).
“Also recorded” adds a separate entry of the source.

B1: TAT-GIV-CT-WT: Recombinant cell-permeable fusion of TAT-PTD, His and HA tags, linker and human GIV C-terminus (aa 1660-1870), wild type; SEQ ID NO: 2 (protein)
chain: MRGSHHHHHHGMASMTGGQQMGRDLYDDDDKDRWGSKLGYGRKKRRQRRRGGSTMSGYPYDVPDYAGSMGGSGHSGETLESRHHKIKTGSPGSEVVTLQQFLEESNKLTSVQIKSSSQENLLDEVMKSLSVSSDFLGKDKPVSCGLARSVSGKTPGDFYDRRTTKPEFLRPGPRKTEDTYFISSAGKPTPGTQGKIKLVKESSLSRQSKDSNPYATLPRASSVISTAEGTTRRTSIHDFLTKDSRLPISVDSPPAAADSNTTAASNVDKVQESRNSKSRSREQQSS
B2: TAT-GIV-CT-FA: GEF-deficient F1685A mutant of the TAT-GIV-CT peptide, dominant-negative; SEQ ID NO: 3 (protein)
chain: MRGSHHHHHHGMASMTGGQQMGRDLYDDDDKDRWGSKLGYGRKKRRQRRRGGSTMSGYPYDVPDYAGSMGGSGHSGETLESRHHKIKTGSPGSEVVTLQQALEESNKLTSVQIKSSSQENLLDEVMKSLSVSSDFLGKDKPVSCGLARSVSGKTPGDFYDRRTTKPEFLRPGPRKTEDTYFISSAGKPTPGTQGKIKLVKESSLSRQSKDSNPYATLPRASSVISTAEGTTRRTSIHDFLTKDSRLPISVDSPPAAADSNTTAASNVDKVQESRNSKSRSREQQSS

Key:
[1] = test system: HeLa cells; test: Actin cytoskeleton remodeling in HeLa cells (phalloidin staining, confocal); assay type: cell-based; settings: ~400 nM TAT peptide
Method: HeLa cell lines were fixed at room temperature with 3% paraformaldehyde for 20-25 min, permeabilized (0.2% Triton X-100) for 45 min and incubated for 1 h each with primary and then secondary antibodies as described (7). Dilutions of antibodies and reagents were as follows: His (1:500); Phalloidin (1:1,000); DAPI (1: 2,000); secondary goat anti-rabbit (594) and goat anti-mouse (488) Alexa-conjugated antibodies (1:500). Coverslips were mounted with ProLong Gold (Life Technologies). Cells were imaged on a Leica SPE confocal microscope using a 63× oil objective using 488, 561, and 405 laser lines for excitation. Images were scanned using a line-average of 3. All images were processed using ImageJ software and assembled into figure panels using Photoshop and Illustrator (Adobe).
(§1) For TAT-protein transduction, cells were incubated with 400-800 nM of the TAT-proteins for 30 min at 37° C. prior to three washes with PBS and addition of fresh growth media. For analysis of EGF signaling, subconfluent monolayers of HeLa cells were treated with TAT proteins for 30 min, washed with PBS, and subsequently stimulated with EGF (50 nM) at 4 h after TAT transduction. For scratch-wound assays, HeLa monolayers were treated with TAT proteins before and at 12 h after wounding. For cancer cell invasion assays, highly invasive MDA MB 231 breast cancer cells were plated in 6-well dishes, treated with TAT-peptides for 30 min and subsequently lifted and placed in transwell chamber in the presence of serum-free media. For L×2 myofibroblast activation assays, cells were first treated with TAT-proteins for 30 min, starved in serum-free media, and subsequently treated with 1.5 ng/ml TGF-β for 24 h. TAT-protein transduction was repeated every 8 h during the course of TGFβ stimulation (total 3 treatments). For assays involving insulin stimulation of TAT-treated L6 myotubes, such stimulation was carried out 90 min after transduction. In each case, whole cell lysates prepared from cells in duplicate wells were analyzed for signaling pathways and TAT-protein uptake by immunoblotting.

[2] = test system: 6-mm punch biopsy dermal wounds; test: Dermal wound healing in mice, topical TAT proteins; assay type: in vivo; settings: for wound healing: topical 15 μg (~500 pmol) every 24 h for 8 d, vs TAT control
Method: Under general anesthesia, two 6-mm diameter punch biopsy wounds were created on the shaved dorsal surface of 8 wk old female C56BL/6 wild-type mice under sterile conditions. Wounds were then treated with 15 μg (˜500 pmol) of TAT proteins every 24 h for 8 d after injury, and photographed every 48 h over that period, and wound area was manually traced by placing a transparent film over the wound and tracing the outline with a permanent marker. To measure the wound area, the edges of the dermis were determined as the wound edge. […] The tracing was then scanned and measured using an image analysis program (NIH Image J Software). Five mice, each with 2 wounds (a total of 10 wounds) were studied in each treatment arm, and their rate of closure was analyzed. These studies were carried out in a blinded manner such that aliquots of purified TAT proteins were prepared and color coded before their arrival at the animal facility. Consequently, the personnel who performed dermal punch biopsies, daily treatment with TAT proteins, photography and measurement of wound area was blinded to the identity of the compound. The study protocol (FIG. 4B) included standard wound care as per IACUC guidelines.

[3] = test system: MDA MB231 cells; test: Transwell tumor cell invasion assay through basement membrane extract; assay type: cell-based; settings: compared to TAT-control peptides; 50 nM EGF
Method: Briefly, after a serum starvation overnight, MDA MB231 cells were first transduced with TAT peptides for 30 min as above. Transduced cells were trypsinized, counted, and placed in a Corning transwell permeable support coated with Cultrex Basement Membrane Extract (7×10^4 cells per well). Media without FBS but containing EGF ligand (50 nM) was placed within the bottom chamber of each well to trigger directional 3D invasion. As done in the 2D migration assays, transduction with TAT peptides was repeated one more time ˜10-12 h into the assay (total of two times). At 22-24 h, a Q-tip was used to meticulously remove all cells from the surface of the permeable membrane facing the upper chamber. […] To quantify cell invasion (expressed as number of invasive cells/high power field) ˜10-12 random fields per membrane insert per condition were analyzed for number of crystal violet stained cells. […]
Invasion assays were performed using Corning® Transwell plates according to the manufacturer's protocol. Transduced cells were trypsinized, counted and placed in a Corning transwell permeable support coated with Cultrex® Basement Membrane Extract (7×10^4 cells/well). […] Cell invasion (expressed as number of invasive cells/high power field) was quantified by analyzing ˜10-12 random fields/membrane insert/condition for number of crystal violet stained cells.

[4] = test system: EGFR autophosphorylation and Akt signaling; test: EGF signaling in TAT-transduced HeLa cells by immunoblotting; assay type: cell-based; settings: 50 nM EGF; for EGFR autophosphorylation: pY1068
Method: For immunoblotting, protein samples were separated by SDS/PAGE and transferred to PVDF membranes (Millipore). Membranes were blocked with PBS supplemented with 5% nonfat milk (or with 5% BSA when probing for phosphorylated proteins) before incubation with primary antibodies. Infrared imaging with two-color detection and quantification were performed using a Li-Cor Odyssey imaging system (50, 52, 53). Primary antibodies were diluted as follows: anti-His 1:1,000; anti-GIV/Girdin (T-13) 1:500; antiphospho EGFR 1068 (1:1000); anti-phospho-Akt (Ser473) 1:250; anti-Akt 1:500; anti-Gαi3 1:333; anti-pan-GP 1:250; anti-α tubulin 1: 2,000. All Odyssey images were processed using Image J software (NIH) and assembled for presentation using Photoshop and Illustrator software (Adobe).
as §1

[5] = test system: L×2 human hepatic stellate cells; test: L×2 myofibroblast (hepatic stellate cell) activation by TGFβ, qPCR and immunoblot; assay type: cell-based
Method: For measurement of collagen and αSMA mRNA levels in L×2 HSCs we followed the protocols exactly as before (59). Briefly, total RNA was isolated using an RNeasy kit (QIAGEN) as per the manufacturer's protocol. First-strand cDNA was synthesized using SuperScript II reverse transcriptase (Invitrogen), followed by ribonuclease H treatment (Invitrogen) before performing quantitative realtime PCR. Reactions omitting reverse transcriptase were performed in each experiment as negative controls. Reactions were then run on a real-time PCR system (ABI StepOnePlus; Applied Biosystems). Gene expression was detected with SYBR green (Invitrogen), and relative gene expression was determined by normalizing to GAPDH using the ΔΔT method. The sequences of primers used in this work are identical to what were used previously (59).
as §1, with “For assays involving insulin stimulation of TAT-treated L6 myotubes, such stimulation was carried out 90 min after transduction.” left out

| Molecule | actin remodeling / actin stress fibers [1] | actin remodeling / actin stress fibers ([1]; listed as WT) | rate of wound healing relative to TAT-treated controls ([2]; topical 500 pmol daily) [× the rate] | time of wound healing relative to TAT-treated controls ([2]; topical 500 pmol daily) | wound healing [2] | invasion through basement membrane matrix in response to EGF gradient [3] | Akt signaling (phosphorylation at Ser 473) [4] | EGFR autophosphorylation [4] | wound healing ([2]; listed as FA) | reduction of HSC activation (expression of α-SMA) ([5]; TGFβ 24 h, TAT every 8 h, qPCR) [%] | suppression of collagen production ([5]; TGFβ 24 h, TAT every 8 h, vs control and TAT-GIV-CT-WT, qPCR) [%] | TGFβ-SMAD cascade (phosphorylation of SMAD2/3) ([5]; immunoblot) |
| --- | --- | --- | --- | --- | --- | --- | --- | --- | --- | --- | --- | --- |
| B1 | triggered actin remodeling | not | ~2 | a day earlier | accelerated wound healing; also recorded: accelerates | significantly enhanced | enhances | enhances | – | – | – | – |
| B2 | suppressed the formation of actin stress fibers | – | – | – | – | virtually abolished | inhibited; also recorded: suppresses | inhibited; also recorded: suppresses | delayed wound healing; also recorded: retards | ~30 | ~70 | suppression |
